Experimental data: patent US20170137467A1 (CHROMOTEK, published 2017)
Square brackets hold non-standard residues; d marks the D form. GABA = NCCCC(=O)O

Experiments:
Test in all cases: peptide library pulldown on immobilized Nb, LC-MS of supernatant; ratio vs GFP-Nb control (1 = not captured, 0 = captured)
[1] = molecular target: T1, BC2T Q12(I/L) library peptide, version 2 (N-terminal acetyl, C-terminal amide)
T1 construct: Ile and Leu versions are isobaric; two versions resolved but not assigned; also called I/L2
Method in brief: (§1)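 Unbound peptide left in supernatant after 1 h pulldown in PBS/0.01% CHAPS measured by reversed-phase LC-MS (8–30% eluent B gradient, 20 min).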

[2] = molecular target: T2, BC2T H9R library peptide (human)
T2 peptide: Ac-PDRKAAVSRWQQ-NH2
Method in brief: as §1

[3] = molecular target: T3, BC2T Q11P library peptide (human)
T3 peptide: Ac-PDRKAAVSHWPQ-NH2
Method in brief: as §1

[4] = molecular target: T4, BC2T Q11D library peptide (human)
T4 peptide: Ac-PDRKAAVSHWDQ-NH2
Method in brief: as §1

[5] = molecular target: T5, BC2T W10F library peptide (human)
T5 construct: also called BC2TW10X: F
T5 peptide: Ac-PDRKAAVSHFQQ-NH2
Method in brief: as §1

[6] = molecular target: T6, BC2T Q11Y library peptide (human)
T6 peptide: Ac-PDRKAAVSHWYQ-NH2
Method in brief: as §1

[7] = molecular target: T7, BC2T H9Y library peptide (human)
T7 peptide: Ac-PDRKAAVSYWQQ-NH2
Method in brief: as §1

[8] = molecular target: T8, BC2T H9Q library peptide (human)
T8 peptide: Ac-PDRKAAVSQWQQ-NH2
Method in brief: as §1

[9] = molecular target: T9, BC2T H9C* library peptide (human, SMILES …)
T9 construct: also called C(Abu)
T9 peptide: Ac-PDRKAAVS[GABA]WQQ-NH2
Method in brief: as §1

[10] = molecular target: T10, BC2T Q11C* library peptide (human, SMILES …)
T10 construct: also called C(Abu)
T10 peptide: Ac-PDRKAAVSHW[GABA]Q-NH2
Method in brief: as §1

[11] = molecular target: T11, BC2T Q11G library peptide (human)
T11 peptide: Ac-PDRKAAVSHWGQ-NH2
Method in brief: as §1

[12] = molecular target: T12, BC2T Q11S library peptide (human)
T12 peptide: Ac-PDRKAAVSHWSQ-NH2
Method in brief: as §1

[13] = molecular target: T13, BC2T Q11F library peptide (human)
T13 peptide: Ac-PDRKAAVSHWFQ-NH2
Method in brief: as §1

[14] = molecular target: T14, BC2T H9F library peptide (human)
T14 peptide: Ac-PDRKAAVSFWQQ-NH2
Method in brief: as §1

[15] = molecular target: T15, BC2T Q12E library peptide (human)
T15 peptide: Ac-PDRKAAVSHWQE-NH2
Method in brief: as §1

[16] = molecular target: T16, BC2T Q12G library peptide (human)
T16 peptide: Ac-PDRKAAVSHWQG-NH2
Method in brief: as §1

[17] = molecular target: T17, BC2T Q12R library peptide (human)
T17 peptide: Ac-PDRKAAVSHWQR-NH2
Method in brief: as §1

[18] = molecular target: T18, BC2T S8K library peptide (human)
T18 construct: also called BC2TS8X: K
T18 peptide: Ac-PDRKAAVKHWQQ-NH2
Method in brief: as §1

[19] = molecular target: T19, BC2T Q11H library peptide (human)
T19 peptide: Ac-PDRKAAVSHWHQ-NH2
Method in brief: as §1

[20] = molecular target: T20, BC2T S8Q library peptide (human)
T20 construct: also called BC2TS8X: Q
T20 peptide: Ac-PDRKAAVQHWQQ-NH2
Method in brief: as §1

ratio [1]: 0.1
ratio [2]: 0.1
ratio [3]: 0.9
ratio [4]: 0.5
ratio [5]: 1
ratio [6]: 0.1
ratio [7]: 0.1
ratio [8]: 0.3
ratio [9]: 0.3
ratio [10]: 0.2
ratio [11]: 0.4
ratio [12]: 0.2
ratio [13]: 0.1
ratio [14]: 0.2
ratio [15]: 0.6
ratio [16]: 0.2
ratio [17]: 0
ratio [18]: 0.9
ratio [19]: 0.2
ratio [20]: 0.9
B1: BC2-Nb(R106E) (VHH)
VHH: QVQLVESGGGLVQPGGSLTLSCTASGFTLDHYDIGWFRQAPGKEREGVSCINNSDDDTYYADSVKGRFTIFMDNAKDTVYLQMNSLKPEDTAIYYCAEARGCKRGEYEYDFWGQGTQVTVSS
notes: Headlock mutant; immobilized on beads in the library pulldown
